Experimental data as given in US20220195054A1 (BERGEN TEKNOLOGIOVERF RING, published 2022).
Several values for one entry are separate records, joined by “and”; a condition that tells them apart may be missing. Equal values may be shown once.

How the values were obtained:
[1] = target: T1, recombinant human Tyro3/Dtk-Fc chimera (rhTyro3/Dtk-Fc; R&D Systems, Cat no. 859-DK) (human, UniProt Q06418 41-429); experiment: Biacore 3000 SPR, rhTyro3/Dtk-Fc on a CM5 chip, antibody injected for 3 min; concentration from Example 2, not printed on the sheet
T1 construct: Bought construct; Fc part of the bought chimera not given
T1 sequence: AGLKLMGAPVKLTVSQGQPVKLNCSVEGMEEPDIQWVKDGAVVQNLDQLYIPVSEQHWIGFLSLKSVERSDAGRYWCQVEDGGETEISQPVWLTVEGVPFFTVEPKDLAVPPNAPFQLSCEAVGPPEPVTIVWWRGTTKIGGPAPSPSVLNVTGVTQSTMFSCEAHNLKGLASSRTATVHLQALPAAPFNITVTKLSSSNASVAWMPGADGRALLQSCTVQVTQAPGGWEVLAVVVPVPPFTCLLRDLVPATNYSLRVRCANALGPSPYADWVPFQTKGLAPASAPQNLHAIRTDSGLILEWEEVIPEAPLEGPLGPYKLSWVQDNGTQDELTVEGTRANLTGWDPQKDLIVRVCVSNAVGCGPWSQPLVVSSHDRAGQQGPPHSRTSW

[2] = target: T2, recombinant cyno-Axl-Fc (extracellular domain of Axl from Macaca fascicularis fused to human Fc) (cynomolgus monkey (Macaca fascicularis), UniProt P30530 26-451 (human entry)); experiment: Biacore 3000 SPR, cyno-Axl-Fc on a CM5 chip, antibody injected at 10 µg/mL for 3 min, 5 min dissociation [upper panel 10G5]
T2 construct: Made by transient expression in CHO cells; also called Axl from cynomolgus monkey; not shown: human Fc
T2 chain: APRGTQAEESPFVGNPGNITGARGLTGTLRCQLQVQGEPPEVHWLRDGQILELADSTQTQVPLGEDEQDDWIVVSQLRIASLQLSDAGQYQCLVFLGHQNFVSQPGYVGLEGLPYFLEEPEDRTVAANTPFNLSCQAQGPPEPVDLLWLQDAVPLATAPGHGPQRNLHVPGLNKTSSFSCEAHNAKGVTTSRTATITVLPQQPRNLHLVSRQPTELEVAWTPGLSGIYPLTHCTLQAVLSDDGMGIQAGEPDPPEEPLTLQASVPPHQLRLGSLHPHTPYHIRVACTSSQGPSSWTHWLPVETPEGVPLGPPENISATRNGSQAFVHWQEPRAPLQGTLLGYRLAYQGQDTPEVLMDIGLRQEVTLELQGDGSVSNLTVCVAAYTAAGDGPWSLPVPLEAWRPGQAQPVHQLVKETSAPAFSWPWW

[3] = target: T3, recombinant human Axl-Fc chimera (rhAxl-Fc; R&D Systems, Cat. no. 154-AL) (human, UniProt P30530 26-451); experiment: SPR (Biacore), rhAxl immobilised; same values as Table 1
T3 construct: Bought construct; also called rhAxi-Fc; Hu-Axl-Fc; Fc part of the bought chimera not given

[4] = target: T3, recombinant human Axl-Fc chimera …; experiment: SPR (Biacore 3000, 25 C), rhAxl-Fc immobilised; ln2/koff
[5] = target: T3, recombinant human Axl-Fc chimera …; experiment: SPR (Biacore 3000, 25 C), rhAxl-Fc immobilised (190 RU), antibody as analyte, 1:1 Langmuir
[6] = target: T4, recombinant human Mer-Fc chimera (rhMer-Fc; R&D Systems, Cat no. 891-MR) (human, UniProt Q12866 21-505); experiment: Biacore 3000 SPR, rhMer-Fc on a CM5 chip, antibody injected for 3 min; concentration from Example 2, not printed on the sheet
T4 construct: Bought construct; Fc part of the bought chimera not given
T4 sequence: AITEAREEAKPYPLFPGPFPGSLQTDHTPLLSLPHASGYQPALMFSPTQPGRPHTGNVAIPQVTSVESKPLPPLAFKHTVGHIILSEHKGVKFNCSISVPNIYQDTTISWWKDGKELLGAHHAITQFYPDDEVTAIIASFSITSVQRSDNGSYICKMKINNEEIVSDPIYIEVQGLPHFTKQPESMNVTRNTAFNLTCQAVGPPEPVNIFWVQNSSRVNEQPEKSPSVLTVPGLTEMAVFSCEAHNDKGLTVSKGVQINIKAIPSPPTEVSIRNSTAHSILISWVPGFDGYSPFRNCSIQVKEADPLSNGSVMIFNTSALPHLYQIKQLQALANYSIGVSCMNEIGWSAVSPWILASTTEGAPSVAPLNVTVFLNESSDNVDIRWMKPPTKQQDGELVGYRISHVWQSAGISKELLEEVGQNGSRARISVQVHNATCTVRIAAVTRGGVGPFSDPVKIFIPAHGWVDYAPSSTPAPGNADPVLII

[7] = target: T3, recombinant human Axl-Fc chimera …; experiment: SPR (Biacore 3000, 25 C), rhAxl-Fc immobilised (190 RU), antibody as analyte, koff/kon
[8] = target: recombinant human Axl-Fc chimera (rhAxl-Fc; R&D Systems, Cat. no. 154-AL) (human) (UniProt P30530); experiment: SPR two-injection competition on immobilised Axl-Fc; response expected for the second sample (first: 10G5)
[9] = target: recombinant human Axl-Fc chimera (rhAxl-Fc; R&D Systems, Cat. no. 154-AL) (human) (UniProt P30530); experiment: SPR two-injection competition on immobilised Axl-Fc; first injection
[10] = target: recombinant human Axl-Fc chimera (rhAxl-Fc; R&D Systems, Cat. no. 154-AL) (human) (UniProt P30530); experiment: SPR two-injection competition on immobilised Axl-Fc; second injection, competitor bound first: 10G5
[11] = target: recombinant human Axl-Fc chimera (rhAxl-Fc; R&D Systems, Cat. no. 154-AL) (human) (UniProt P30530); experiment: SPR two-injection competition on immobilised Axl-Fc; response expected for the second sample (first: YW327.6S2)
[12] = target: recombinant human Axl-Fc chimera (rhAxl-Fc; R&D Systems, Cat. no. 154-AL) (human) (UniProt P30530); experiment: SPR two-injection competition on immobilised Axl-Fc; second injection, competitor bound first: YW327.6S2
[13] = target: T5, human Axl receptor on cells (MDA-MB-231, HeLa, LX2, Axl-positive cells) (human, UniProt P30530 26-894); experiment: flow cytometry on MDA-MB-231 cells, APC-conjugated anti-human IgG F(ab')2 detection
T5 construct: Endogenous receptor of human tumour cell lines

[14] = target: T5, human Axl receptor on cells …; experiment: flow cytometry titration on MDA-MB-231 cells, Kd of the fitted curve, the axis of the fitted curves is Conc. (nM) [table under the graph]
[15] = target: T3, recombinant human Axl-Fc chimera …; experiment: SPR (Biacore), rhAxl immobilised on the sensor chip
[16] = target: T3, recombinant human Axl-Fc chimera …; experiment: SPR (Biacore), rhAxl immobilised on the sensor chip, antibody as analyte
[17] = target: T5, human Axl receptor on cells …; experiment: cell-based or functional assay
[18] = target: T5, human Axl receptor on cells …; experiment: cell-based or functional assay; remark: listed apart in the source
[19] = target: recombinant human Axl-Fc chimera (rhAxl-Fc; R&D Systems, Cat. no. 154-AL) (human) (UniProt P30530); experiment: SPR two-injection competition on immobilised Axl-Fc; response expected for the second sample (first: H2L1)
[20] = target: recombinant human Axl-Fc chimera (rhAxl-Fc; R&D Systems, Cat. no. 154-AL) (human) (UniProt P30530); experiment: SPR two-injection competition on immobilised Axl-Fc; second injection, competitor bound first: H2L1
[21] = target: recombinant human Axl-Fc chimera (rhAxl-Fc; R&D Systems, Cat. no. 154-AL) (human) (UniProt P30530); experiment: SPR two-injection competition on immobilised Axl-Fc; response expected for the second sample (first: Gas6)
[22] = target: recombinant human Axl-Fc chimera (rhAxl-Fc; R&D Systems, Cat. no. 154-AL) (human) (UniProt P30530); experiment: SPR two-injection competition on immobilised Axl-Fc; second injection, competitor bound first: Gas6

B1: mouse monoclonal antibody 10G5 (antibody, V domains shown)
VH: QVQLQQSGAELVRPGASVKLSCKASGYSFTDFYINWVRQRPGQGLEWIARIFPGGDNTYYNEKFKGKATLTAEESSSTAYIQLSSLTSEDSAVYFCARRGLYYAMDYWGQGISVTVSS
VL: DVLMTQTPLSLPVSLGDQASISCRSSQSLVHSNGIPYLHWYLQKPGQSPKLLIYRVSNRFSGVPDRFSGSGSGTDFTLKISRVEAEDLGVYFCSQGTHVPPTFGGGTKLEIK
notes: Whole mouse IgG purified from hybridoma supernatant; also called murine 10G5; MAb 10G5
- binding result [1]: no binding (tested: 10 µg/mL)
- binding result [2]: binds
- Half-life (t1/2) [3]: 26.3 min
- Kd [3]: 0.53 nM
- koff [3]: 0.000439 s⁻¹
- kon [3]: 829000 M⁻¹ s⁻¹
- Half-life (t1/2) [4]: 26.3 min
- koff [5]: 0.000439 s⁻¹
- kon [5]: 829000 M⁻¹ s⁻¹
- binding result [6]: no binding (tested: 10 µg/mL)
- Kd [7]: 0.53 nM

B2: chimeric 1H12 anti-Axl antibody (antibody, from another filing, V domains shown)
VH: EVQLVESGGDLVKPGGSLKLSCAASGFTFSSYGMSWVRQTPDKRLEWVATISSGGSYTYYPDSVKGRFTISRDNAKNTLYLQMSSLKSEDTAMYYCARHPIYYTYDDTMDYWGQGTSVTVSS
VL: ENVLTQSPAIMAASPGEKVTMTCSASSSVSSGNFHWYQQKPGTSPKLWIYRTSNLASGVPARFSGSGSGTSYSLTISSMEAEDAATYYCQQWSGYPWTFGGGTKLEIK
- Expected response if independent [8]: 220
- 1st Response [9]: 400 and 220
- 2nd Response [10]: 180
- Expected response if independent [11]: 400
- 2nd Response [12]: 400

B3: humanised 10G5 antibody H1L1 (antibody, human IgG1, kappa, V domains shown)
VH: EVQLVQSGAGLVQPGGSVRLSCAASGYSFTDFYINWVRQAPGKGLEWIARIFPGGDNTYYNEKFKGRFTLSADTSSSTAYLQLNSLRAEDTAVYYCARRGLYYAMDYWGQGTLVTVSS
VL: DIQMTQSPSSLSASVGDRVTITCRSSQSLVHSNGIPYLHWYQQKPGKAPKLLIYRVSNRFSGVPSRFSGSGSGTDFTLTISSLQPEDFATYYCSQGTHVPPTFGQGTKVEIKR
notes: H1L1 is read as GH1 heavy chain + GL1 light chain; also called hu10G5 H1L1
- EC50 (read off the curve) [13]: ~0.1 nM
- Kd [14]: 0.12 nM
- Half-life (t1/2) [15]: 71.7 min
- Kd [16]: 0.105 nM
- koff [16]: 0.000161 s⁻¹
- kon [16]: 1.54e+06 M⁻¹ s⁻¹
- EC50 (pM), tumour cell killing by antibody-Saporin conjugates, as in Example 20 [17]: 17.1 pM
- EC50 (pM), killing of MDA-MB-231 cells by antibody coupled to Saporin (FabFc-ZAP), XTT/PMS viability after 72 hrs [18]: 3.44 pM

B4: humanised 10G5 antibody H2L1 (antibody, human IgG1, kappa, V domains shown)
VH: EVQLVESGGGLVQPGGSLRLSCAASGYSFTDFYINWVRQAPGKGLEWVARIFPGGDNTYYNEKFKGRFTLSADTSKSTAYLQMNSLRAEDTAVYYCARRGLYYAMDYWGQGTLVTVSS
VL: DIQMTQSPSSLSASVGDRVTITCRSSQSLVHSNGIPYLHWYQQKPGKAPKLLIYRVSNRFSGVPSRFSGSGSGTDFTLTISSLQPEDFATYYCSQGTHVPPTFGQGTKVEIKR
notes: H2L1 is read as GH2 heavy chain + GL1 light chain; also called hu10G5 H2L1; Hu10G5 (H2L1)
- EC50 (read off the curve) [13]: ~0.2 nM
- 1st Response [9]: 323
- Expected response if independent [19]: 323
- Kd [14]: 0.192 nM
- 2nd Response [20]: 8.9
- Expected response if independent [21]: 318
- 2nd Response [22]: 301
- Half-life (t1/2) [15]: 81.4 min
- Kd [16]: 0.0686 nM
- koff [16]: 0.000142 s⁻¹
- kon [16]: 2.07e+06 M⁻¹ s⁻¹
- EC50 (pM), tumour cell killing by antibody-Saporin conjugates, as in Example 20 [17]: 2.66 pM
- EC50 (pM), killing of MDA-MB-231 cells by antibody coupled to Saporin (FabFc-ZAP), XTT/PMS viability after 72 hrs [18]: 2.68 pM
